What follows are sequences tested on Bacillus subtilis (assay: cleaved RNA product abundance (RNA/gDNA barcode ratio) relative to median wild-type variant (ratio to wild type); higher = more accumulation of the downstream cleavage product). Settings: experiment (reporter, strain, medium): exp 8a: truncated aprE reporter, strain BJT201 with 2% xylose (RNase J1 expressed); cleavage site: glnRA (positions -5 to +31 mutated).
Outline: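 Cleaved product abundance is expressed as the RNA:gDNA barcode ratio per construct, scaled to the median construct carrying the unmutated site. The constructs were barcoded, mutagenized RNase Y cleavage-site windows in truncated aprE or tetM reporter mRNAs integrated into the B. subtilis chromosome. Cultures grew in LB at 37°C from OD600 0.0003 to 0.3 before cleaved RNA was gel-selected and barcode-sequenced.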

Sequence	cleaved RNA product abundance
CGACATGTCCCGCTTCTTTCATTAATCAGTTAGCAACTGTTTTGCTATACACATTTACCTTTTAAGAGGAGGAAT	0.225
CGACATGTCCCGCTTCTTTCATTAATCAGTTAGCAACTGTTTTGCTATATAAATTTACCTTTTAAGAGGAGGAAT	0.682
CGACATGTCCCGCTTCTTTCATTAATCAGTTAGCAACTGTTTTGCTATATACATATACCTTTTAAGAGGAGGAAT	1.04
CGACATGTCCCGCTTCTTTCATTAATCAGTTAGCAACTGTTTTGCTATATACATTAACCTTTTAAGAGGAGGAAT	0.984
CGACATGTCCCGCTTCTTTCATTAATCAGTTAGCAACTGTTTTGCTATATACATTTAACTTTTAAGAGGAGGAAT	0.983
CGACATGTCCCGCTTCTTTCATTAATCAGTTAGCAACTGTTTTGCTATATACATTTACATTTTAAGAGGAGGAAT	0.595
CGACATGTCCCGCTTCTTTCATTAATCAGTTAGCAACTGTTTTGCTATATACATTTACCATTAAGAGGAGGAATT	1.4
CGACATGTCCCGCTTCTTTCATTAATCAGTTAGCAACTGTTTTGCTATATACATTTACCATTTAAGAGGAGGAAT	0.636
CGACATGTCCCGCTTCTTTCATTAATCAGTTAGCAACTGTTTTGCTATATACATTTACCCTTTAAGAGGAGGAAT	1.22
CGACATGTCCCGCTTCTTTCATTAATCAGTTAGCAACTGTTTTGCTATATACATTTACCGTTTAAGAGGAGGAAT	0.649
CGACATGTCCCGCTTCTTTCATTAATCAGTTAGCAACTGTTTTGCTATATACATTTACCTTTTAAGAGGAGGAAT	0.763
CGACATGTCCCGCTTCTTTCATTAATCAGTTAGCAACTGTTTTGCTATATACATTTACTTTTTAAGAGGAGGAAT	0.903
CGACATGTCCCGCTTCTTTCATTAATCAGTTAGCAACTGTTTTGCTATATACATTTATCTTTTAAGAGGAGGAAT	0.854
CGACATGTCCCGCTTCTTTCATTAATCAGTTAGCAACTGTTTTGCTATATACTTTTACCTTTTAAGAGGAGGAAT	0.343
CGACATGTCCCGCTTCTTTCATTAATCAGTTAGCAACTGTTTTGCTATATAGATTTACCTTTTAAGAGGAGGAAT	0.842
CGACATGTCCCGCTTCTTTCATTAATCAGTTAGCAACTGTTTTGCTATATATATTTACCTTTTAAGAGGAGGAAT	0.759
CGACATGTCCCGCTTCTTTCATTAATCAGTTAGCAACTGTTTTGTTATATACATTTACCTTTTAAGAGGAGGAAT	0.523
CGACATGTCCCGCTTCTTTCATTAATCAGTTAGCAACTGTTTTTCTATATACATTTACCTTTTAAGAGGAGGAAT	0.642
CGACATGTCCCGCTTCTTTCATTAATCAGTTAGCAACTTTTTTGCTATATACATTTACCTTTTAAGAGGAGGAAT	1.18
CGACATGTCCCGCTTCTTTCATTAATCAGTTAGCATCTGTTTTGCTATATACATTTACCTTTTAAGAGGAGGAAT	0.725
CGACATGTCCCGCTTCTTTCATTAATCAGTTAGCTACTGTTTTGCTATATACATTTACCTTTTAAGAGGAGGAAT	0.423
CGACATGTCCCGCTTCTTTCATTAATCAGTTAGTAACTGTTTTGCTATATACATTTACCTTTTAAGAGGAGGAAT	0.421

Sequence	cleaved RNA product abundance
CGACATGTCCCGCTTCTTTCATTAATCAGTTATCAACTGTTTTGCTATATACATTTACCTTTTAAGAGGAGGAAT	0.307
CGACATGTCCCGCTTCTTTCATTAATCAGTTGGCAACTGTTTTGCTATATACATTTACCTTTTAAGAGGAGGAAT	0.497
CGACATGTCCCGCTTCTTTCATTAATCAGTTTGCAACTGTTTTGCTATATACATTTACCTTTTAAGAGGAGGAAT	0.686
CGACATGTCCCGCTTCTTTCATTAATCATTTAGCAACTGTTTTGCTATATACATTTACCTTTTAAGAGGAGGAAT	0.249
CGACATGTCCCGCTTCTTTCATTAATCCAATAGCAACTGTTTTGCTATATACATTTACCTTTTAAGAGGAGGAAT	0.553
CGACATGTCCCGCTTCTTTCATTAATCCATAAGCAACTGTTTTGCTATATACATTTACCTTTTAAGAGGAGGAAT	0.462
CGACATGTCCCGCTTCTTTCATTAATCCATCAGCAACTGTTTTGCTATATACATATACCTTTTAAGAGGAGGAAT	0.507
CGACATGTCCCGCTTCTTTCATTAATCCATCAGCAACTGTTTTGCTATATACATTTACCTTTTAAGAGGAGGAAT	0.41
CGACATGTCCCGCTTCTTTCATTAATCCATTAACAACTGTTTTGCTATATACATTTACCTTTTAAGAGGAGGAAT	0.198
CGACATGTCCCGCTTCTTTCATTAATCCATTACCAACTGTTTTACTATATACATTTACCTTTTAAGAGGAGGAAT	0.262
CGACATGTCCCGCTTCTTTCATTAATCCATTACCAACTGTTTTGCTATATACATTTACCTTTTAAGAGGAGGAAT	0.17
CGACATGTCCCGCTTCTTTCATTAATCCATTAGAAACTGTTTTGCTATATACATTTACCTTTTAAGAGGAGGAAT	0.244
CGACATGTCCCGCTTCTTTCATTAATCCATTAGAAACTGTTTTGCTATATAGATTTACCTTTTAAGAGGAGGAAT	0.302
CGACATGTCCCGCTTCTTTCATTAATCCATTAGAAACTGTTTTTCTATTTACATTTACCTTTTAAGAGGAGGAAT	0.127
CGACATGTCCCGCTTCTTTCATTAATCCATTAGCAAATGTTTTGCTATATACATTTACCTTTTAAGAGGAGGAAT	1.18
CGACATGTCCCGCTTCTTTCATTAATCCATTAGCAACTATTTTGCTATATACATTTACCTTTTAAGAGGAGGAAT	0.423
CGACATGTCCCGCTTCTTTCATTAATCCATTAGCAACTGATTTGCTATATACATTTACCTTTTAAGAGGAGGAAT	0.89
CGACATGTCCCGCTTCTTTCATTAATCCATTAGCAACTGTATTGCTATATACATTTACCTTTTAAGAGGAGGAAT	0.279
CGACATGTCCCGCTTCTTTCATTAATCCATTAGCAACTGTTATGCTATATACATTTACCTTTTAAGAGGAGGAAT	0.555
CGACATGTCCCGCTTCTTTCATTAATCCATTAGCAACTGTTCTGCTATATACATTTACCTTTTAAGAGGAGGAAT	0.271
CGACATGTCCCGCTTCTTTCATTAATCCATTAGCAACTGTTTCGCTATATACATTTACCTTTTAAGAGGAGGAAT	0.271
CGACATGTCCCGCTTCTTTCATTAATCCATTAGCAACTGTTTGGCTATATACATTTACCTTTTAAGAGGAGGAAT	0.386

Sequence	cleaved RNA product abundance
CGACATGTCCCGCTTCTTTCATTAATCCATTAGCAACTGTTTTACTATATACATATACCTTTTAAGAGGAGGAAT	0.482
CGACATGTCCCGCTTCTTTCATTAATCCATTAGCAACTGTTTTACTATATACATTTACCTTTTAAGAGGAGGAAT	0.48
CGACATGTCCCGCTTCTTTCATTAATCCATTAGCAACTGTTTTGATATATACAGTTACCTTTTAAGAGGAGGAAT	0.247
CGACATGTCCCGCTTCTTTCATTAATCCATTAGCAACTGTTTTGATATATACATTTACCTTTTAAGAGGAGGAAT	0.35
CGACATGTCCCGCTTCTTTCATTAATCCATTAGCAACTGTTTTGCAATATACATTTACCTTTTAAGAGGAGGAAT	0.408
CGACATGTCCCGCTTCTTTCATTAATCCATTAGCAACTGTTTTGCTAAATACATTTACCTTTTAAGAGGAGGAAT	0.47
CGACATGTCCCGCTTCTTTCATTAATCCATTAGCAACTGTTTTGCTACATACATTTACCTTTTAAGAGGAGGAAT	0.772
CGACATGTCCCGCTTCTTTCATTAATCCATTAGCAACTGTTTTGCTATAGACATTTACCTTTTAAGAGGAGGAAT	0.532
CGACATGTCCCGCTTCTTTCATTAATCCATTAGCAACTGTTTTGCTATATAAATTTACCTTTTAAGAGGAGGAAT	0.754
CGACATGTCCCGCTTCTTTCATTAATCCATTAGCAACTGTTTTGCTATATACATATACCTTTTAAGAGGAGGAAT	0.929
CGACATGTCCCGCTTCTTTCATTAATCCATTAGCAACTGTTTTGCTATATACATCTACCTTTTAAGAGGAGGAAT	0.942
CGACATGTCCCGCTTCTTTCATTAATCCATTAGCAACTGTTTTGCTATATACATTAACCTTTTAAGAGGAGGAAT	1.3
CGACATGTCCCGCTTCTTTCATTAATCCATTAGCAACTGTTTTGCTATATACATTCACCTTTTAAGAGGAGGAAT	0.276
CGACATGTCCCGCTTCTTTCATTAATCCATTAGCAACTGTTTTGCTATATACATTTACATTTTAAGAGGAGGAAT	0.688
CGACATGTCCCGCTTCTTTCATTAATCCATTAGCAACTGTTTTGCTATATACATTTACCTTTTAAGAGGAGGAAT	0.857
CGACATGTCCCGCTTCTTTCATTAATCCATTAGCAACTGTTTTGCTATATACATTTACGTTTTAAGAGGAGGAAT	0.903
CGACATGTCCCGCTTCTTTCATTAATCCATTAGCAACTGTTTTGCTATATACATTTACTTTTTAAGAGGAGGAAT	0.808
CGACATGTCCCGCTTCTTTCATTAATCCATTAGCAACTGTTTTGCTATATACATTTATCTTTTAAGAGGAGGAAT	0.777
CGACATGTCCCGCTTCTTTCATTAATCCATTAGCAACTGTTTTGCTATATACATTTTACTTTTAAGAGGAGGAAT	1.24
CGACATGTCCCGCTTCTTTCATTAATCCATTAGCAACTGTTTTGCTATATACATTTTCCTTTTAAGAGGAGGAAT	0.292
CGACATGTCCCGCTTCTTTCATTAATCCATTAGCAACTGTTTTGCTATATACTTTTACCTTTTAAGAGGAGGAAT	0.253
CGACATGTCCCGCTTCTTTCATTAATCCATTAGCAACTGTTTTGCTATATATATTTACCTTTTAAGAGGAGGAAT	0.973

Source: the supplement of paper PMC11780869
